In the assay the target is recombinant human IL-18 (human) (UniProt Q14116). In words: free IL-18 ECL immunoassay: recombinant human IL-18 captured by plate-coated Antibody 12GL, biotinylated detection antibody; rhIL-18BP titrated as competitor of the capture.

For “recombinant IL-18BP (from UniProt O95998 31-194)”, the IC50 (read off the curve) turned out to be 3 ng/mL.

The record behind these values is patent publication US20140004128A1.
